Patent publication US20220072120A1 (University of Washington, published 2022)

Target: I53-dn5 B
Experiment: in vitro nanoparticle assembly; SEC on Superose 6, SDS-PAGE

B1: I53-dn5 A.2 (A_LF2_W16G_LS) (designed binder)
chain: MGKYDGSKLRIGILHARGNAEIILELVLGALKRLQEFGVKRENIIIETVPGSFELPYGSKLFVEKQKRLGKPLDAIIPIGVLIRGSTAHFDYIADSTTHQLMKLNFELGIPVIFGVLTTESDEQAEERAGTKAGNHGEDWGAAAVEMATKFN
  binding result: binds
